In the data set the test system is Bacillus subtilis. The experiment in a line: cleaved RNA product abundance (RNA/gDNA barcode ratio) relative to median wild-type variant (ratio to wild type); higher = more accumulation of the downstream cleavage product. The settings on record: experiment (reporter, strain, medium): exp 8a: truncated aprE reporter, strain BJT201 with 2% xylose (RNase J1 expressed); cleavage site: glnRA (positions -5 to +31 mutated). In short, it runs like this: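 The B. subtilis chromosome carried reporter mRNAs, truncated aprE or tetM, containing barcoded RNase Y cleavage-site windows mutagenized using oligos with a 9% error rate. After growth in LB at 37°C from OD600 0.0003 to 0.3, cleaved RNA was gel-selected, reverse transcribed and barcode-sequenced next to genomic DNA barcodes, with UMI collapsing. Each construct's RNA:gDNA barcode ratio was scaled to the median construct with the unmutated site. That scaled ratio is reported as cleaved product abundance.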
As to “CGACATGTCCCGCTTCTTTCATTATTCCGTTAGCAACTGTATTGCTATATACATTTACCTTTTAAGAGGAGGAAT”, the “cleaved RNA product abundance” value amounted to 1.36. Take “CGACATGTCCCGCTTCTTTCATTATTCCGTTAGCAACTGTCTTGCTATATACATTTACCTTTTAAGAGGAGGAAT”: the “cleaved RNA product abundance” value is 1.31. Turning to “CGACATGTCCCGCTTCTTTCATTATTCCGTTAGCAACTGTGTTGCTATATACATTTACCTTTTAAGAGGAGGAAT”, the “cleaved RNA product abundance” value came to 0.7. Consider “CGACATGTCCCGCTTCTTTCATTATTCCGTTAGCAACTGTTATGCTATATACATTTACCTTTTAAGAGGAGGAAT”, for which the “cleaved RNA product abundance” value was 0.76.

Regarding “CGACATGTCCCGCTTCTTTCATTATTCCGTTAGCAACTGTTCTGCTATATACATTTACCTTTTAAGAGGAGGAAT”, the “cleaved RNA product abundance” value is 0.551. Take “CGACATGTCCCGCTTCTTTCATTATTCCGTTAGCAACTGTTGTGCTATATACATTTACCTTTTAAGAGGAGGAAT”: the “cleaved RNA product abundance” value worked out at 0.941.

Turning to “CGACATGTCCCGCTTCTTTCATTATTCCGTTAGCAACTGTTTAGCTATATACATTTACCTTTTAAGAGGAGGAAT”, the “cleaved RNA product abundance” value is 0.706. As for “CGACATGTCCCGCTTCTTTCATTATTCCGTTAGCAACTGTTTAGGTATATACATTTACCTTTTAAGAGGAGGAAT”, the “cleaved RNA product abundance” value amounted to 0.443. The same measure for “CGACATGTCCCGCTTCTTTCATTATTCCGTTAGCAACTGTTTCGCTATATACATTTACCTTTTAAGAGGAGGAAT”: 0.509; for “CGACATGTCCCGCTTCTTTCATTATTCCGTTAGCAACTGTTTGGCTATATACATTTACCTTTTAAGAGGAGGAAT”: 0.949; for “CGACATGTCCCGCTTCTTTCATTATTCCGTTAGCAACTGTTTTACTATATACATATACCTTTTAAGAGGAGGAAT”: 0.607. Turning to “CGACATGTCCCGCTTCTTTCATTATTCCGTTAGCAACTGTTTTACTATATACATTTACCTTTTAAGAGGAGGAAT”, the “cleaved RNA product abundance” value is 0.812. For the sequence “CGACATGTCCCGCTTCTTTCATTATTCCGTTAGCAACTGTTTTCATAAATACATTTACCTTTTAAGAGGAGGAAT”, the “cleaved RNA product abundance” value worked out at 0.375. Consider “CGACATGTCCCGCTTCTTTCATTATTCCGTTAGCAACTGTTTTCCTATATACATTTACCTTTTAAGAGGAGGAAT”, for which the “cleaved RNA product abundance” value worked out at 0.524. On to “CGACATGTCCCGCTTCTTTCATTATTCCGTTAGCAACTGTTTTGATATATACATTTACCTTTTAAGAGGAGGAAT”, for which the “cleaved RNA product abundance” value turned out to be 0.502. For the sequence “CGACATGTCCCGCTTCTTTCATTATTCCGTTAGCAACTGTTTTGCAATATACATTTACCTTTTAAGAGGAGGAAT”, the “cleaved RNA product abundance” value was found to be 0.626. For “CGACATGTCCCGCTTCTTTCATTATTCCGTTAGCAACTGTTTTGCCATATACATTTACCTTTTAAGAGGAGGAAT”, the “cleaved RNA product abundance” value was determined as 0.346. On to “CGACATGTCCCGCTTCTTTCATTATTCCGTTAGCAACTGTTTTGCGATATACATTTACCTTTTAAGAGGAGGAAT”, for which the “cleaved RNA product abundance” value is 0.52. Take “CGACATGTCCCGCTTCTTTCATTATTCCGTTAGCAACTGTTTTGCTAAATACATTTACCTTTTAAGAGGAGGAAT”: the “cleaved RNA product abundance” value was determined as 0.93. For “CGACATGTCCCGCTTCTTTCATTATTCCGTTAGCAACTGTTTTGCTACATACATTTACCTTTTAAGAGGAGGAAT”, the “cleaved RNA product abundance” value worked out at 0.626. On to “CGACATGTCCCGCTTCTTTCATTATTCCGTTAGCAACTGTTTTGCTATAAACAGTTACCTTTTAAGAGGAGGAAT”, for which the “cleaved RNA product abundance” value came out at 0.0919. As to “CGACATGTCCCGCTTCTTTCATTATTCCGTTAGCAACTGTTTTGCTATAAACATTTACCTTTTAAGAGGAGGAAT”, the “cleaved RNA product abundance” value is 0.851. The same measure for “CGACATGTCCCGCTTCTTTCATTATTCCGTTAGCAACTGTTTTGCTATACACATTTACCTTTTAAGAGGAGGAAT”: 0.807. As for “CGACATGTCCCGCTTCTTTCATTATTCCGTTAGCAACTGTTTTGCTATAGACATTTACCTTTTAAGAGGAGGAAT”, the “cleaved RNA product abundance” value is 0.917.

With “CGACATGTCCCGCTTCTTTCATTATTCCGTTAGCAACTGTTTTGCTATATAAATTTACCTTTTAAGAGGAGGAAT”, the “cleaved RNA product abundance” value stood at 0.753. With “CGACATGTCCCGCTTCTTTCATTATTCCGTTAGCAACTGTTTTGCTATATACAATTACCTTTTAAGAGGAGGAAT”, the “cleaved RNA product abundance” value turned out to be 1.31. “CGACATGTCCCGCTTCTTTCATTATTCCGTTAGCAACTGTTTTGCTATATACACTTACCTTTTAAGAGGAGGAAT”: the “cleaved RNA product abundance” value turned out to be 1.07. Turning to “CGACATGTCCCGCTTCTTTCATTATTCCGTTAGCAACTGTTTTGCTATATACAGTTACCTTTTAAGAGGAGGAAT”, the “cleaved RNA product abundance” value was 0.649. Consider “CGACATGTCCCGCTTCTTTCATTATTCCGTTAGCAACTGTTTTGCTATATACATATACCTTTTAAGAGGAGGAAT”, for which the “cleaved RNA product abundance” value was 1.59.

Take “CGACATGTCCCGCTTCTTTCATTATTCCGTTAGCAACTGTTTTGCTATATACATCTACCTTTTAAGAGGAGGAAT”: the “cleaved RNA product abundance” value came out at 1.15.

“CGACATGTCCCGCTTCTTTCATTATTCCGTTAGCAACTGTTTTGCTATATACATTAACATTTTAAGAGGAGGAAT”: the “cleaved RNA product abundance” value worked out at 2.49.

The values above are taken from the supplement of paper PMC11780869.
